In the supplement of paper PMC10598134:
± gives the standard deviation.

Test: collision cross section of modified peptide (TIMS, N2, iRT-aligned); higher = larger / more extended gas-phase ion
How it was run: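 Collision cross section was derived from the Mason-Schamp equation. Each value averages 1–3 technical replicates of the most abundant feature per charge state, measured on a timsTOF Pro/HT in dda-PASEF mode (nitrogen, ~2.4 mbar) after a 120-min nanoflow C18 gradient at 60 °C. Synthetic peptide pools (~100 fmol/µL in 2% acetonitrile/0.1% formic acid, iRT standard spiked 1:40) were identified with MaxQuant, and 1/K0 was calibrated with three reference ions and aligned run-wise to the median iRT peptide deviation.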

[1] = charge state: 2, modification: Butyryl
[2] = charge state: 2, modification: Crotonyl
[3] = charge state: 2, modification: Dimethyl (K)
[4] = charge state: 3, modification: Dimethyl (K)
[5] = charge state: 2, modification: Formyl
[6] = charge state: 2, modification: Glutarylation
[7] = charge state: 3, modification: Glutarylation
[8] = charge state: 2, modification: GlyGly (K)
[9] = charge state: 3, modification: GlyGly (K)
[10] = charge state: 2, modification: Malonyl
[11] = charge state: 2, modification: Methyl (K)
[12] = charge state: 3, modification: Methyl (K)
[13] = charge state: 2, modification: Succinyl
[14] = charge state: 3, modification: Succinyl
[15] = charge state: 2, modification: Trimethyl (K)
[16] = charge state: 3, modification: Trimethyl (K)
[17] = charge state: 2, modification: hydroxyisobutyryl
[18] = charge state: 2, modification: Hydroxyproline
[19] = charge state: 3, modification: Hydroxyproline
[20] = charge state: 2, modification: Nitro (Y)
[21] = charge state: 2, modification: Phospho (Y)

Sequence: VGTASVLQPVKK [_VGTASVLQPVK(Butyryl)K_]
- collision cross section [1]: 385.91 ± 0.85 Å²

Sequence: VGTASVLQPVKK [_VGTASVLQPVK(Crotonyl)K_]
- collision cross section [2]: 387.11 ± 0.8 Å²

Sequence: VGTASVLQPVKK [_VGTASVLQPVK(Dimethyl (K))K_]
- collision cross section [3]: 391.72 ± 3 Å²
- collision cross section [4]: 440.56 ± 1.6 Å²

Sequence: VGTASVLQPVKK [_VGTASVLQPVK(Formyl)K_]
- collision cross section [5]: 375.49 ± 0.89 Å²

Sequence: VGTASVLQPVKK [_VGTASVLQPVK(Gluratylation)K_]
- collision cross section [6]: 391.34 ± 0.52 Å²
- collision cross section [7]: 415.52 ± 3.5 Å²

Sequence: VGTASVLQPVKK [_VGTASVLQPVK(GlyGly (K))K_]
- collision cross section [8]: 404.53 ± 0.36 Å²
- collision cross section [9]: 466.32 ± 0.78 Å²

Sequence: VGTASVLQPVKK [_VGTASVLQPVK(Malonyl)K_]
- collision cross section [10]: 381.57 ± 0.0073 Å²

Sequence: VGTASVLQPVKK [_VGTASVLQPVK(Methyl (K))K_]
- collision cross section [11]: 392.83 ± 0.43 Å²
- collision cross section [12]: 460.66 ± 3.8 Å²

Sequence: VGTASVLQPVKK [_VGTASVLQPVK(Propionyl)K_]
- collision cross section (charge state: 2, modification: Propionyl): 382.42 ± 0.33 Å²

Sequence: VGTASVLQPVKK [_VGTASVLQPVK(Succinyl)K_]
- collision cross section [13]: 383.62 ± 0.87 Å²
- collision cross section [14]: 412.94 ± 4.4 Å²

Sequence: VGTASVLQPVKK [_VGTASVLQPVK(Trimethyl (K))K_]
- collision cross section [15]: 394.06 ± 0.62 Å²
- collision cross section [16]: 455.76 ± 1.5 Å²

Sequence: VGTASVLQPVKK [_VGTASVLQPVK(hydroxyisobutyryl)K_]
- collision cross section [17]: 388.32 ± 0.29 Å²
- collision cross section (charge state: 3, modification: hydroxyisobutyryl): 413.48 ± 1.6 Å²

Sequence: VGVEAKQPNSAIR [_VGVEAKQP(Hydroxyproline)NSAIR_]
- collision cross section [18]: 405.11 ± 0.27 Å²
- collision cross section [19]: 482.65 ± 0.83 Å²

Sequence: VGVEVPDVNIEGPEGKLK [_VGVEVPDVNIEGPEGK(Acetyl (K))LK_]
- collision cross section (charge state: 2, modification: Acetyl (K)): 456.04 ± 2.4 Å²
- collision cross section (charge state: 3, modification: Acetyl (K)): 513.89 Å²

Sequence: VGVEVPDVNIEGPEGKLK [_VGVEVPDVNIEGPEGK(Butyryl)LK_]
- collision cross section [1]: 461.93 ± 0.5 Å²

Sequence: VGVEVPDVNIEGPEGKLK [_VGVEVPDVNIEGPEGK(Crotonyl)LK_]
- collision cross section [2]: 462.4 ± 1.4 Å²

Sequence: VGVEVPDVNIEGPEGKLK [_VGVEVPDVNIEGPEGK(Dimethyl (K))LK_]
- collision cross section [3]: 456.47 ± 2.5 Å²
- collision cross section [4]: 540.33 ± 0.77 Å²

Sequence: VGVEVPDVNIEGPEGKLK [_VGVEVPDVNIEGPEGK(Formyl)LK_]
- collision cross section [5]: 455.9 ± 1.7 Å²

Sequence: VGVEVPDVNIEGPEGKLK [_VGVEVPDVNIEGPEGK(Gluratylation)LK_]
- collision cross section [6]: 461.98 ± 1.5 Å²
- collision cross section [7]: 531 ± 29 Å²

Sequence: VGVEVPDVNIEGPEGKLK [_VGVEVPDVNIEGPEGK(GlyGly (K))LK_]
- collision cross section [8]: 464.33 ± 1.3 Å²
- collision cross section [9]: 509.72 ± 1.9 Å²

Sequence: VGVEVPDVNIEGPEGKLK [_VGVEVPDVNIEGPEGK(Malonyl)LK_]
- collision cross section [10]: 458.25 ± 0.64 Å²

Sequence: VGVEVPDVNIEGPEGKLK [_VGVEVPDVNIEGPEGK(Methyl (K))LK_]
- collision cross section [11]: 459.11 ± 16 Å²
- collision cross section [12]: 535.61 ± 7.1 Å²

Sequence: VGVEVPDVNIEGPEGKLK [_VGVEVPDVNIEGPEGK(Succinyl)LK_]
- collision cross section [13]: 461.15 ± 2.6 Å²
- collision cross section [14]: 499.18 Å²

Sequence: VGVEVPDVNIEGPEGKLK [_VGVEVPDVNIEGPEGK(Trimethyl (K))LK_]
- collision cross section [15]: 479.14 ± 17 Å²
- collision cross section [16]: 530.81 ± 6.1 Å²

Sequence: VGVEVPDVNIEGPEGKLK [_VGVEVPDVNIEGPEGK(hydroxyisobutyryl)LK_]
- collision cross section [17]: 459.37 ± 1.3 Å²

Sequence: VGYPGPSGPLGAR [_VGYP(Hydroxyproline)GPSGPLGAR_]
- collision cross section [18]: 356.91 ± 0.79 Å²
- collision cross section [19]: 437.31 ± 1.7 Å²

Sequence: VGYPGPSGPLGARGIPGIK [_VGYP(Hydroxyproline)GPSGPLGARGIPGIK_]
- collision cross section [18]: 446.49 ± 1.1 Å²
- collision cross section [19]: 508.9 ± 31 Å²

Sequence: VHATSTYR [_VHATSTY(Nitro (Y))R_]
- collision cross section [20]: 330 ± 0.55 Å²
- collision cross section (charge state: 3, modification: Nitro (Y)): 400.02 ± 0.83 Å²

Sequence: VHATSTYR [_VHATSTY(Phospho (Y))R_]
- collision cross section [21]: 330.17 ± 0.75 Å²
- collision cross section (charge state: 3, modification: Phospho (Y)): 411.28 Å²

Sequence: VILENIASHEPR [_VILENIAS(HexNAc (ST))HEPR_]
- collision cross section (charge state: 2, modification: HexNAc (ST)): 443 ± 0.62 Å²
- collision cross section (charge state: 3, modification: HexNAc (ST)): 492.7 ± 0.18 Å²

Sequence: VIVGGSSEYK [_VIVGGSSEY(Nitro (Y))K_]
- collision cross section [20]: 344.24 ± 0.72 Å²

Sequence: VIVGGSSEYK [_VIVGGSSEY(Phospho (Y))K_]
- collision cross section [21]: 358.71 ± 0.065 Å²
